The results in this text go back to US20110263827A1 (AbbVie / Abbott, published 2011).

B1: DVD755 (bispecific antibody)
VH: QVQLQESGPGLVKPSQTLSLTCTVSGYSISSDFAWNWIRQPPGKGLEWMGYISYSGNTRYQPSLKSRITISRDTSKNQFFLKLNSVTAADTATYYCVTAGRGFPYWGQGTLVTVSSASTKGPEVQLLESGGGLVQPGGSLRLSCAASGFTFSHYVMAWVRQAPGKGLEWVSSISSSGGWTLYADSVKGRFTISRDNSKNTLYLQMNSLRAEDTAVYYCTRGLKMATIFDYWGQGTLVTVSS
VL: DIQMTQSPSSMSVSVGDRVTITCHSSQDINSNIGWLQQKPGKSFKGLIYHGTNLDDGVPSRFSGSGSGTDYTLTISSLQPEDFATYYCVQYAQFPWTFGGGTKLEIKRTVAAPQSALTQPASVSGSPGQSITISCTGTSSDVGSYNVVSWYQQHPGKAPKLIIYEVSQRPSGVSNRFSGSKSGNTASLTISGLQTEDEADYYCCSYAGSSIFVIFGGGTKVTVLG
notes: DVD-Ig; HC S, LC S; variable parts only
B2: DVD329 (bispecific antibody)
VH: QVQLQESGPGLVKPSQTLSLTCTVSGYSISSDFAWNWIRQPPGKGLEWMGYISYSGNTRYQPSLKSRITISRDTSKNQFFLKLNSVTAADTATYYCVTAGRGFPYWGQGTLVTVSSASTKGPEVQLVESGGGLVQPGGSLRLSCAASGFTFSIYSMNWVRQAPGKGLEWVSYISSSSSTIYYADSVKGRFTISRDNAKNSLYLQMNSLRDEDTAVYYCARDRGDFDAFDIWGQGTMVTVSS
VL: DIQMTQSPSSMSVSVGDRVTITCHSSQDINSNIGWLQQKPGKSFKGLIYHGTNLDDGVPSRFSGSGSGTDYTLTISSLQPEDFATYYCVQYAQFPWTFGGGTKLEIKRTVAAPDIQMTQSPSSLSASVGDRVTITCQASQDITNYLNWYQQKPGKAPKLLIYDASNLETGVPSRFSGSGSGTDFTFTISSLQPEDIATYNCQQCENFPITFGQGTRLEIKR
notes: as for B1
B3: DVD769 (bispecific antibody)
VH: QVQLQESGPGLVKPSQTLSLTCTVSGYSISSDFAWNWIRQPPGKGLEWMGYISYSGNTRYQPSLKSRITISRDTSKNQFFLKLNSVTAADTATYYCVTAGRGFPYWGQGTLVTVSSASTKGPSVFPLAPQVQLQQWGAGLLKPSETLSLTCAVYGGSFSGYYWSWIRQPPGKGLEWIGEINHSGSTNYNPSLKSRVTISVETSKNQFSLKLSSVTAADTAVYYCARDKWTWYFDLWGRGTLVTVSS
VL: DIQMTQSPSSMSVSVGDRVTITCHSSQDINSNIGWLQQKPGKSFKGLIYHGTNLDDGVPSRFSGSGSGTDYTLTISSLQPEDFATYYCVQYAQFPWTFGGGTKLEIKRTVAAPSVFIFPPDIEMTQSPDSLAVSLGERATINCRSSQSVLYSSSNRNYLAWYQQNPGQPPKLLIYWASTRESGVPDRFSGSGSGTDFTLTISSLQAEDVAVYYCQQYYSTPRTFGQGTKVEIKR
notes: DVD-Ig; HC L, LC L; variable parts only
B4: DVD799 (bispecific antibody)
VH: B3 VH
VL: DIQMTQSPSSMSVSVGDRVTITCHSSQDINSNIGWLQQKPGKSFKGLIYHGTNLDDGVPSRFSGSGSGTDYTLTISSLQPEDFATYYCVQYAQFPWTFGGGTKLEIKRTVAAPDIEMTQSPDSLAVSLGERATINCRSSQSVLYSSSNRNYLAWYQQNPGQPPKLLIYWASTRESGVPDRFSGSGSGTDFTLTISSLQAEDVAVYYCQQYYSTPRTFGQGTKVEIKR
notes: DVD-Ig; HC L, LC S; variable parts only
B5: DVD829 (bispecific antibody)
VH: QVQLQESGPGLVKPSQTLSLTCTVSGYSISSDFAWNWIRQPPGKGLEWMGYISYSGNTRYQPSLKSRITISRDTSKNQFFLKLNSVTAADTATYYCVTAGRGFPYWGQGTLVTVSSASTKGPQVQLQQWGAGLLKPSETLSLTCAVYGGSFSGYYWSWIRQPPGKGLEWIGEINHSGSTNYNPSLKSRVTISVETSKNQFSLKLSSVTAADTAVYYCARDKWTWYFDLWGRGTLVTVSS
VL: B3 VL
notes: DVD-Ig; HC S, LC L; variable parts only
B6: DVD771 (bispecific antibody)
VH: QVQLQESGPGLVKPSQTLSLTCTVSGYSISSDFAWNWIRQPPGKGLEWMGYISYSGNTRYQPSLKSRITISRDTSKNQFFLKLNSVTAADTATYYCVTAGRGFPYWGQGTLVTVSSASTKGPSVFPLAPEVQLVESGGGLVQPGGSLRLSCAASGFTFSIYSMNWVRQAPGKGLEWVSYISSSSSTIYYADSVKGRFTISRDNAKNSLYLQMNSLRDEDTAVYYCARDRGDFDAFDIWGQGTMVTVSS
VL: DIQMTQSPSSMSVSVGDRVTITCHSSQDINSNIGWLQQKPGKSFKGLIYHGTNLDDGVPSRFSGSGSGTDYTLTISSLQPEDFATYYCVQYAQFPWTFGGGTKLEIKRTVAAPSVFIFPPDIQMTQSPSSLSASVGDRVTITCQASQDITNYLNWYQQKPGKAPKLLIYDASNLETGVPSRFSGSGSGTDFTFTISSLQPEDIATYNCQQCENFPITFGQGTRLEIKR
notes: as for B3
B7: DVD831 (bispecific antibody)
VH: B2 VH
VL: B6 VL
notes: as for B5
B8: DVD801 (bispecific antibody)
VH: B6 VH
VL: B2 VL
notes: as for B4
B9: DVD787 (bispecific antibody)
VH: QVQLQESGPGLVKPSQTLSLTCTVSGYSISSDFAWNWIRQPPGKGLEWMGYISYSGNTRYQPSLKSRITISRDTSKNQFFLKLNSVTAADTATYYCVTAGRGFPYWGQGTLVTVSSASTKGPSVFPLAPEVQLLESGGGLVQPGGSLRLSCAASGFTFSHYVMAWVRQAPGKGLEWVSSISSSGGWTLYADSVKGRFTISRDNSKNTLYLQMNSLRAEDTAVYYCTRGLKMATIFDYWGQGTLVTVSS
VL: DIQMTQSPSSMSVSVGDRVTITCHSSQDINSNIGWLQQKPGKSFKGLIYHGTNLDDGVPSRFSGSGSGTDYTLTISSLQPEDFATYYCVQYAQFPWTFGGGTKLEIKRTVAAPSVFIFPPQSALTQPASVSGSPGQSITISCTGTSSDVGSYNVVSWYQQHPGKAPKLIIYEVSQRPSGVSNRFSGSKSGNTASLTISGLQTEDEADYYCCSYAGSSIFVIFGGGTKVTVLG
notes: as for B3
B10: DVD817 (bispecific antibody)
VH: B9 VH
VL: B1 VL
notes: as for B4
B11: DVD847 (bispecific antibody)
VH: B1 VH
VL: B9 VL
notes: as for B5
B12: DVD327 (bispecific antibody)
VH: B5 VH
VL: B4 VL
notes: as for B1

One experiment has as its target T1, ErbB3 (UniProt P21860 20-643, limits assumed, biotinylated).
T1 construct: ELISA antigen
The experiment is described as follows: direct bind ELISA, C-term VD.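 Also: ELISA with antibody or DVD-Ig preparations applied to target antigen-coated plates for 1 h at room temperature, TMB colour development, absorbance read at 450 nm.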
What is called EC50 is the concentration giving half of the maximal effect. Low readings indicate greater potency, high ones weaker potency. Regarding B1, the EC50 came to 27.7 nM.
Same read-out and setting: the figure for B2 is 481 nM; for B3 it is 8.23 nM.
The same measure, in the same setting: the same measure for B4: 20 nM; for B5: 41.4 nM; for B6: 1.38 nM.
On the same count and under the same terms, the figure for B7 is 1.42 nM.
The molecule B8 registered an EC50 of 3.28 nM.
Same read-out and setting: the figure for B9 is 14.4 nM; for B10 it is 18.8 nM.
The molecule B11 returned an EC50 of 12.9 nM.
Same read-out and setting: the figure for B12 is 485 nM.

The next experiment deals with T2, EGFR (UniProt P00533 25-645, limits assumed, biotinylated).
T2 construct: ELISA antigen; construct not described
Description: direct bind ELISA, N-term VD.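 Also: antibody or DVD-Ig preparations bound to immobilized target antigen on ELISA plates, 1 h at room temperature, TMB detection read as absorbance at 450 nm.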 For orientation: ELISA stands for enzyme-linked immunosorbent assay.
B1: the EC50 was 3.26 nM.
With B2, the EC50 amounted to 3.82 nM.
On the same count and under the same terms, the figure for B3 is 3.59 nM; for B4 it is 5.76 nM.
On the same count and under the same terms, the figure for B5 is 3.81 nM.
On the same count and under the same terms, the figure for B6 is 4.43 nM.
For the molecule B7, the EC50 came to 4.6 nM.
Same read-out and setting: the figure for B8 is 3.91 nM; for B9 it is 3.78 nM.
Same read-out and setting: the figure for B10 is 5.33 nM; for B11 it is 2.92 nM.
On the same count and under the same terms, the figure for B12 is 3.98 nM.
